According to article PMC10786891, “Massively parallel profiling of RNA-targeting CRISPR-Cas13d”:
Positions count from the first letter of the chain named. Names may count otherwise.

Molecular target: T1, EsCas13d, nuclease-dead (Eubacterium siraeum, UniProt B0MS50, R295A;H300A;R849A;H854A)
T1 sequence: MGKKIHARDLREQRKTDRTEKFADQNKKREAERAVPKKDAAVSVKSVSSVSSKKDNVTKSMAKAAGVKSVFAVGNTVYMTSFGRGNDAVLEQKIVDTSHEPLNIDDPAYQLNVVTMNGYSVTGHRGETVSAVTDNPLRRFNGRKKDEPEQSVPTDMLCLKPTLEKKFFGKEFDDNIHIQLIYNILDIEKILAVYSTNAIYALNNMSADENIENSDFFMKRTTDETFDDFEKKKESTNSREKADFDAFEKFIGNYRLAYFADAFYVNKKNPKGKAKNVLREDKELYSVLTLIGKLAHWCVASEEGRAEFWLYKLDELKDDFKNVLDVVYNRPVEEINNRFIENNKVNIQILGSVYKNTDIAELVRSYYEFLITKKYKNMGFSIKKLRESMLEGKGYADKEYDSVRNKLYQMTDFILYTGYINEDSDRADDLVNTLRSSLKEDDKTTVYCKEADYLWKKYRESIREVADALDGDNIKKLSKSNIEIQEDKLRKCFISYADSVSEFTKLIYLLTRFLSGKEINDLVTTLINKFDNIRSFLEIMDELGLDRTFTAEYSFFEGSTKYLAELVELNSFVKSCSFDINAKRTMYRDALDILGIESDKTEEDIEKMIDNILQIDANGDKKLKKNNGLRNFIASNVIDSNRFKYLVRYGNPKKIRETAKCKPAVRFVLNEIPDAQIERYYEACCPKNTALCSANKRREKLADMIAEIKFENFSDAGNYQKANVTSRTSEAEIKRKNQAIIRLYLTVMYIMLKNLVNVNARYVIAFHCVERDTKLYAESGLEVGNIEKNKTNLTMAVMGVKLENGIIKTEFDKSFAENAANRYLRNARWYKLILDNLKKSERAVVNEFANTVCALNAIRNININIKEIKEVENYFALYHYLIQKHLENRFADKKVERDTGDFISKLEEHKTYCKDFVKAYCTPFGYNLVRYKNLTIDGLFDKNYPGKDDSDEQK
Assay: crRNA (strand 1, pre-loaded); Mg2+; 40 mM Tris-HCl pH 7.5, 150 mM NaCl, 6 mM MgCl2, 1 mM DTT, 0.1% Tween-20, 0.2 mg/ml BSA; 25 C; 10 min per concentration, then washed
Conditions: tags: His6-TwinStrep-SUMO cleaved; N-terminal SNAP kept (SNAP-Surface 488); label: 3' end held by stalled T7 RNA polymerase

B1: target 2 MT 5'PFS AAC 3'PFS ACC (mixed)
RNA 1: CACCCGUGCAAAAUUGCAGGGGUCUAAAACCUUCUCCAAAUUGUUUCAUCCU
RNA 2: GGGAAUGGAUCCACAUCUACGAAUUCAACAGGAUGAAACAAUUUGGAGAAGACCAGAUCGGAAGAGCACACGU
Kd: 7 ± 2.4 nM

B2: target 2 MT 5'PFS CGA 3'PFS CUC (mixed)
RNA 1: B1 RNA 1
RNA 2: B1 RNA 2 with A27C, A28G, C29A, A52C, C53U
Kd: 9.3 ± 1.8 nM

B3: target 2 MT 5'PFS UUG 3'PFS AGG (mixed)
RNA 1: B1 RNA 1
RNA 2: B1 RNA 2 with A27U, A28U, C29G, C53G, C54G
Kd: 14.1 ± 1.5 nM

B4: target 2 MT 5'PFS CGA 3'PFS UUC (mixed)
RNA 1: B1 RNA 1
RNA 2: B1 RNA 2 with A27C, A28G, C29A, A52U, C53U
Kd: 11.5 ± 1.9 nM

B5: target 2 MT 5'PFS UUU 3'PFS UAU (mixed)
RNA 1: B1 RNA 1
RNA 2: B1 RNA 2 with A27U, A28U, C29U, A52U, C53A, C54U
Kd: 8.4 ± 0.9 nM

B6: target 2 MT 5'PFS GAA 3'PFS AUC (mixed)
RNA 1: B1 RNA 1
RNA 2: B1 RNA 2 with A27G, C29A, C53U
Kd: 10.2 ± 1.6 nM

B7: target 2 MT 5'PFS UUG 3'PFS AGC (mixed)
RNA 1: B1 RNA 1
RNA 2: B1 RNA 2 with A27U, A28U, C29G, C53G
Kd: 13.7 ± 2 nM

B8: target 2 MT 5'PFS GAC 3'PFS ACC (mixed)
RNA 1: B1 RNA 1
RNA 2: B1 RNA 2 with A27G
Kd: 14.7 ± 2.3 nM

B9: target 2 MT 5'PFS AAA 3'PFS CGA (mixed)
RNA 1: B1 RNA 1
RNA 2: B1 RNA 2 with C29A, A52C, C53G, C54A
Kd: 3.4 ± 0.8 nM

B10: target 2 MT 5'PFS AAC 3'PFS ACU (mixed)
RNA 1: B1 RNA 1
RNA 2: B1 RNA 2 with C54U
Kd: 9.1 ± 3.1 nM

B11: target 2 MT 5'PFS ACU 3'PFS CUA (mixed)
RNA 1: B1 RNA 1
RNA 2: B1 RNA 2 with A28C, C29U, A52C, C53U, C54A
Kd: 3.5 ± 0.5 nM

B12: target 2 MT 5'PFS AAA 3'PFS CGC (mixed)
RNA 1: B1 RNA 1
RNA 2: B1 RNA 2 with C29A, A52C, C53G
Kd: 3.3 ± 1 nM

B13: target 2 MT 5'PFS AUU 3'PFS CAA (mixed)
RNA 1: B1 RNA 1
RNA 2: B1 RNA 2 with A28U, C29U, A52C, C53A, C54A
Kd: 5 ± 0.6 nM

B14: target 2 MT 5'PFS GAC 3'PFS ACU (mixed)
RNA 1: B1 RNA 1
RNA 2: B1 RNA 2 with A27G, C54U
Kd: 30 ± 10 nM

B15: target 2 MT 5'PFS GUA 3'PFS UGC (mixed)
RNA 1: B1 RNA 1
RNA 2: B1 RNA 2 with A27G, A28U, C29A, A52U, C53G
Kd: 11.4 ± 1.5 nM

B16: target 2 MT 5'PFS AAC 3'PFS UAC (mixed)
RNA 1: B1 RNA 1
RNA 2: B1 RNA 2 with A52U, C53A
Kd: 5.2 ± 1.2 nM

B17: target 2 MT 5'PFS ACU 3'PFS CUU (mixed)
RNA 1: B1 RNA 1
RNA 2: B1 RNA 2 with A28C, C29U, A52C, C53U, C54U
Kd: 6.2 ± 0.6 nM

B18: target 2 MT 5'PFS UUU 3'PFS UAA (mixed)
RNA 1: B1 RNA 1
RNA 2: B1 RNA 2 with A27U, A28U, C29U, A52U, C53A, C54A
Kd: 10.9 ± 1.7 nM

B19: target 2 MT 5'PFS GAA 3'PFS AUG (mixed)
RNA 1: B1 RNA 1
RNA 2: B1 RNA 2 with A27G, C29A, C53U, C54G
Kd: 8.3 ± 1.1 nM

B20: target 2 MT 5'PFS AAC 3'PFS UAA (mixed)
RNA 1: B1 RNA 1
RNA 2: B1 RNA 2 with A52U, C53A, C54A
Kd: 7.4 ± 2.6 nM

B21: target 2 MT 5'PFS ACU 3'PFS CUC (mixed)
RNA 1: B1 RNA 1
RNA 2: B1 RNA 2 with A28C, C29U, A52C, C53U
Kd: 5.4 ± 1.4 nM

B22: target 2 MT 5'PFS UUU 3'PFS UAC (mixed)
RNA 1: B1 RNA 1
RNA 2: B1 RNA 2 with A27U, A28U, C29U, A52U, C53A
Kd: 9.1 ± 1.2 nM

B23: target 2 MT 5'PFS AUU 3'PFS UGU (mixed)
RNA 1: B1 RNA 1
RNA 2: B1 RNA 2 with A28U, C29U, A52U, C53G, C54U
Kd: 13.5 ± 1.7 nM

B24: target 2 MT 5'PFS UAG 3'PFS UGA (mixed)
RNA 1: B1 RNA 1
RNA 2: B1 RNA 2 with A27U, C29G, A52U, C53G, C54A
Kd: 4.1 ± 0.8 nM

B25: target 2 MT 5'PFS AAU 3'PFS UGU (mixed)
RNA 1: B1 RNA 1
RNA 2: B1 RNA 2 with C29U, A52U, C53G, C54U
Kd: 9.1 ± 1.4 nM

B26: target 2 MT 5'PFS ACU 3'PFS CUG (mixed)
RNA 1: B1 RNA 1
RNA 2: B1 RNA 2 with A28C, C29U, A52C, C53U, C54G
Kd: 6 ± 0.7 nM

B27: target 2 MT 5'PFS GAC 3'PFS ACG (mixed)
RNA 1: B1 RNA 1
RNA 2: B1 RNA 2 with A27G, C54G
Kd: 13.6 ± 2.1 nM

B28: target 2 MT 5'PFS UUG 3'PFS AGU (mixed)
RNA 1: B1 RNA 1
RNA 2: B1 RNA 2 with A27U, A28U, C29G, C53G, C54U
Kd: 14.5 ± 2.2 nM

B29: target 2 MT 5'PFS AAC 3'PFS UAG (mixed)
RNA 1: B1 RNA 1
RNA 2: B1 RNA 2 with A52U, C53A, C54G
Kd: 6.8 ± 1.6 nM

B30: target 2 MT 5'PFS GCC 3'PFS UCA (mixed)
RNA 1: B1 RNA 1
RNA 2: B1 RNA 2 with A27G, A28C, A52U, C54A
Kd: 17 ± 4 nM

B31: target 2 MT 5'PFS GAA 3'PFS AUA (mixed)
RNA 1: B1 RNA 1
RNA 2: B1 RNA 2 with A27G, C29A, C53U, C54A
Kd: 8.1 ± 1.4 nM

B32: target 2 MT 5'PFS GAC 3'PFS ACA (mixed)
RNA 1: B1 RNA 1
RNA 2: B1 RNA 2 with A27G, C54A
Kd: 12.9 ± 2.6 nM

B33: target 2 MT 5'PFS UUG 3'PFS AGA (mixed)
RNA 1: B1 RNA 1
RNA 2: B1 RNA 2 with A27U, A28U, C29G, C53G, C54A
Kd: 7.9 ± 0.5 nM

B34: target 1 U8G,A14G (mixed)
RNA 1: CACCCGUGCAAAAAUGCAGGGGUCUAAAACUGAGCGGAUAACCUCUCUAUGG
RNA 2: GGGAAUGGAUCCACAUCUACGAAUUCGUACCAUAGAGGGGUUAGCCGCUCACCGAGAUCGGAAGAGCACACGU
Kd: 22.9 ± 1.2 nM

B35: target 1 insG 3' of 4,insC 3' of 1 (mixed)
RNA 1: B34 RNA 1
RNA 2: GGGAAUGGAUCCACAUCUACGAAUUCGUACCAUAGAGAGGUUAUCCGCGUCACCCGAGAUCGGAAGAGCACACGU
Kd: 12.6 ± 1 nM

B36: target 1 insG 3' of 4,insA 3' of 2 (mixed)
RNA 1: B34 RNA 1
RNA 2: B35 RNA 2 with C53A
Kd: 5.43 ± 0.18 nM

B37: target 1 insA 3' of 17,insU 3' of 9 (mixed)
RNA 1: B34 RNA 1
RNA 2: GGGAAUGGAUCCACAUCUACGAAUUCGUACCAUAGAAGAGGUUAUUCCGCUCACCGAGAUCGGAAGAGCACACGU
Kd: 18.6 ± 3.3 nM
